Test results reported in PMC7934869 (JCI Insight, 2021).

Columns and labels:
[1] = target: T1, recombinant Plasmodium falciparum circumsporozoite protein (rPfCSP) (Plasmodium falciparum 3D7, UniProt Q7K740); assay: BLI; Octet RED384; rPfCSP on the sensor, purified IgG at 2, 1, 0.5, 0.25, 0.125 ug/mL; 1:1 model; apparent affinity; details: both partners purified
T1 construct: full-length circumsporozoite (CS) protein of 3D7, a clone of the NF54 strain of P. falciparum; also called CS protein

[2] = target: T1, recombinant Plasmodium falciparum …; assay: BLI; Octet RED384; rPfCSP on the sensor, mouse serum 8 weeks after AAV administration with the mAb at 2, 1, 0.5, 0.25, 0.125 ug/mL; 1:1 model; apparent affinity; details: one partner purified

T1 sequence (Q7K740 19-374): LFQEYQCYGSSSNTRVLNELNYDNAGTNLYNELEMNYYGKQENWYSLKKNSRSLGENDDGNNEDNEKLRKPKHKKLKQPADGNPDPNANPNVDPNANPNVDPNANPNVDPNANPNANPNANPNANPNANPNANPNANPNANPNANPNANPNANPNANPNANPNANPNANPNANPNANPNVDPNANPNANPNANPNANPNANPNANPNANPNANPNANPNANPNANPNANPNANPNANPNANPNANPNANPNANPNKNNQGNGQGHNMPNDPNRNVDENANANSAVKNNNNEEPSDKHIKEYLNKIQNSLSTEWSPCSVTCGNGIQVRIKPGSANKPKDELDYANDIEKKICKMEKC

B1: CIS43 human monoclonal antibody (antibody, V domains shown)
VH: QVQLVQSGAEVKKPGASVKVSCKASGYTFTSYAIHWVRQAPGQRLEWMGWIKAGNGNTRYSQKFQDRVTITRDTSTTTAYMELSSLRSEDTAVYYCALLTVLTPDDAFDIWGQGTMVTVSS
VL: not shown
notes: the secreted chain begins at QVQLVQ; light chain of CIS43; IgG1 by the printed constant region; also called rCIS43; CIS43 IgG; source: Expi293 (GenScript) or CHO cells, purified (protein-A column; Superdex200 before BLI)
[1]
  Kd: 5 nM

B2: CIS43 expressed in vivo from an AAV vector (CIS43-AAV), in mouse serum (antibody, V domains shown)
VH: B1 VH
VL: not shown
notes: synthesised and cloned into the VIP vector; human IgG1 heavy chain constant region of the VIP expression vector; light chain variable region of CIS43, as in the light chain of Dm1; human kappa light chain constant region of the VIP expression vector; Heavy and light chain are made from one transcript, separated by an F2A self-processing peptide; also called AAV-expressed CIS43; source: expressed …
[2]
  Kd: 2.3 nM
